# From US20240101667A1, “METHODS FOR IDENTIFYING LILRB-BLOCKING ANTIBODIES” (THE BOARD OF REGENTS OF THE UNIVERSITY OF TEXAS SYSTEM, priority 2020, published 2024)
# Legend:
# [1] = test system: MLL-AF9 AML cells; assay: CFU assay of mouse MLL-AF9 AML cells; type: cell-based
# Excerpt: (§1) FIGS. 7A-N. Blocking anti-LILRB3 antibody prevents monocytic AML development. (FIG. 7A) Epitope binning of 30 high-affinity IgGs. (FIG. 7B) CFU assay of mouse MLL-AF9 AML cells in the presence of above IgGs (n=3 independent experiments). (FIG. 7C) Binding affinities of the two IgGs from bin #3. (FIG. 7D) Upper: Schematic of treatment. Lower: Percentages of GFP^+ MLL-AF9 mouse AIL cells in peripheral blood (PB), bone marrow (BM), spleen (SPL), and liver (LV) of mice transplanted with AML cells expressing B3-FL or B3delICD and injected with IgG or anti-LILRB3 #1 N297A (n=3 independent mice). (FIG. 7E) Overall survival of mice transplanted with indicated AML cells as above. (FIG. 7F) CFU assay of MLL-AF9 mouse AML cells expressing B3-FL or B3delICD in the presence of IgG or anti-LILRB3 #1 N297A (n=3 independent experiments) (FIG. 7G) Upper: Schematic of treatment. Recipient mice were injected with mouse IgG or anti-mCD8 to deplete CD8 T cells. Lower: Percentages of GFP^+ MLL-AF9 mouse AML cells in peripheral blood (PB), bone marrow (BM), spleen (SPL), and liver (LV) of mice transplanted with AML cells expressing B3-FL or B3delICD and injected with IgG or anti-LILRB3 #1 LALAPG (n=4 mice). (FIG. 7H) Survival of mice as in panel h (n=4 independent mice). (FIG. 7I) Upper: Schematic of treatment. Lower: Whole-body images of NSG mice transplanted with luciferase-expressing THP-1 cells and treated with IgG or anti-LILRB3 #1 N297A (#1NA). (FIG. 7J) Overall survival of the mice shown in panel h (n=3 independent mice). (FIG. 7K) Upper: Schematic of treatment. Lower: Whole-body images of NSG mice transplanted with luciferase-expressing Molm13 cells, injected with activated T cells, and treated with IgG or #1NA. (FIG. 7L) Luciferase signaling as a function of time in mice treated as described in panel k. (FIG. 7M) Overall survival of mice treated as described in panel k (n=3 independent mice). (FIG. 7N) Analyses of T cells in peripheral blood of mice treated as described in panel 1 at 22 days after Molm13 AML cell transplantation. Upper: Flow cytometry analyses. Lower: Plot of T cell percentages (n=3 independent mice). The data are presented as mean±s.e.m, and p values were calculated by two-tailed t-test except for FIG. 7E, FIG. 7H, FIG. 7J and FIG. 7M by log-rank test.
# FIGS. S6A-J. Development of anti-LILRB3 blocking antibodies for suppressing AML development. (FIG. S6a) Upper: Flow chart of strategy for development of fully humanized antibodies against LILRB3. Lower: The identified antibodies were tested in the LILRB3 chimeric receptor reporter cell assay. (FIG. S6b) ELISA results for LILRB3 binders. (FIG. S6c) EC50 values of the anti-LILRB3 antibodies based on ELISA. (FIG. S6d) Affinities of antibodies #32, #33, #67, and #45 to LILRB3 as determined by Octet. (FIG. S6e) Cross-reactivity of the anti-LILRB3 antibodies with LILRAs evaluated with LILRA binding analyses. (FIG. S6f) Cross-reactivity of the anti-LILRB3 antibodies with other LILRBs evaluated with LILRB binding analyses. (FIG. S6g) Interaction with TRAF2 contributes to the effect of LILRB3 on AML development. […] (FIG. S6j) NF-κB signaling target gene expression (measured by qPCR) in THP-1 cells from BM of xenografted NSG mice treated with anti-LILRB3 #1NA or IgG (n=3 individual samples). […]
# [2] = test system: Molm13 AML cells; assay: NSG mice with Molm13 AML cells and activated human T cells; type: in vivo, mouse
# Excerpt: as §1
# Mice. C57BL/6J and NOD-SCID IL2Rγ-null (NSG) mice were purchased from and maintained at the animal core facility of the University of Texas Southwestern Medical Center. GFP-specific TCR mice (Jedi mice, JAX lab stock No: 028062) were purchased from the Jackson Lab. C57BL/6J CD45.1 mice were injected intraperitoneally with 1×10^6 irradiated MLL-AF9 mouse AML cells (3000 cGy) and LPS or LPS alone as a control. The injection was repeated 10 days later. […]
# [3] = test system: THP-1 cells; assay: NSG mice xenografted with THP-1 cells; type: in vivo, mouse
# Excerpt: FIGS. 7A-N. Blocking anti-LILRB3 antibody prevents monocytic AML development. (FIG. 7A) Epitope binning of 30 high-affinity IgGs. (FIG. 7B) CFU assay of mouse MLL-AF9 AML cells in the presence of above IgGs (n=3 independent experiments). (FIG. 7C) Binding affinities of the two IgGs from bin #3. (FIG. 7D) Upper: Schematic of treatment. Lower: Percentages of GFP^+ MLL-AF9 mouse AIL cells in peripheral blood (PB), bone marrow (BM), spleen (SPL), and liver (LV) of mice transplanted with AML cells expressing B3-FL or B3delICD and injected with IgG or anti-LILRB3 #1 N297A (n=3 independent mice). (FIG. 7E) Overall survival of mice transplanted with indicated AML cells as above. (FIG. 7F) CFU assay of MLL-AF9 mouse AML cells expressing B3-FL or B3delICD in the presence of IgG or anti-LILRB3 #1 N297A (n=3 independent experiments) (FIG. 7G) Upper: Schematic of treatment. Recipient mice were injected with mouse IgG or anti-mCD8 to deplete CD8 T cells. Lower: Percentages of GFP^+ MLL-AF9 mouse AML cells in peripheral blood (PB), bone marrow (BM), spleen (SPL), and liver (LV) of mice transplanted with AML cells expressing B3-FL or B3delICD and injected with IgG or anti-LILRB3 #1 LALAPG (n=4 mice). […] The data are presented as mean±s.e.m, and p values were calculated by two-tailed t-test except for FIG. 7E, FIG. 7H, FIG. 7J and FIG. 7M by log-rank test. […]
molecule,measurement,setting,value
"anti-LILRB3 #1 N297A: IgG #1 with Fc glycosylation N297A mutation, defective Fc-mediated effector functions (antibody, V domains shown) VH: EVQLVESGGGVVQPGRSLRLSCAASGFTFSSYGMHWVRQAPGKGLEWVAFIRYDGSNKYYADSVKGRFTISRDNSKNTLYLQMNSLRAEDTAVYYCAKAGFSGWYYYGMDVWGQGTMVTVSS VL: DIVMTQSPSSLSASVGDRLTITCRASQSISTYLNWYQQKPGKAPKLLIYGASSLQSGVPSRFSGSGSGTDFTLTISSLQPEDFATYFCQQSYGLPLTFGGGTKVDIK",CFU formation of AML cells expressing mutant LILRB3 that cannot interact with TRAF2,[1]; AAA mutant (QEE509-511AAA),did not decrease CFU formation
same,CFU formation by B3-FL AML cells,[1]; versus IgG,decreased CFU formation
same,effect on mice without the injection of T cells,[2]; no T cells,little effect
same,T cells in treated mice,"[2]; peripheral blood, 22 days after Molm13 transplantation, versus IgG",significantly more T cells
same,leukemia in one of the treated mice,[2]; with activated human T cells,largely eliminated
same,leukemia progression,"[2]; with activated human T cells, antibody at day 8, versus IgG",significantly slower
same,leukemia development,"[3]; NSG mice, THP-1 xenograft, versus controls",significantly delayed leukemia development
same,LILRB3 signaling in THP-1 cells (NF-κB target gene expression by qPCR),[3]; THP-1 cells from BM of xenografted NSG mice,decreased
